Laboratory results: the nanobody polyreactivity screen of Harvey et al. (2022)

Experiment: yeast display, Sf9 membrane polyspecificity reagent, FACS + sequencing; frameworks hold sequencing errors
Outline: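 Galactose induction of a Saccharomyces cerevisiae BJ5465 synthetic nanobody display library ran 36–48 hours. The cells were then stained for 1 hour at 4 °C with 10% biotinylated, detergent-solubilized Sf9 membrane reagent, pulled down on streptavidin microbeads and FACS-sorted into low and high (top ~1%) gates on expression and reagent-binding fluorescence. Labels for polyreactivity follow the gate of origin.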

## QVQLVESGGGLVQAGRSLRLSCAASGNIFIRYAMGWYRQAPGKEREVVAAISQSGGGTSYADSVKGRFTISRDNAKNTVYLQMNSLKPEDTAVYYCNARYWRYPWRFGAWVGHDYWGQGTQVTVSS
  polyreactivity (PSR sort gate): low polyreactivity

## QVQLVESGGGLVQAGGSLRLSCAASGFTFGGNDMGWYSQAPGKERELVAAIRSSGDTTYYADSVKGRFTISRDNAKNTVYLQMNSLKPEDTAVSYCAAYSHHQFSRSEYYYWGKGTQVTVSS
  polyreactivity (PSR sort gate): low polyreactivity

## QVQLVESGGGLVQAGGSLRLSCAASGRIFYYYAMGWYRQAPGKERELVAVISRGGRTKYADSVKGRFTISRDNAKNTVYLQMNSLKPEDTAVYYCAAYPSYYGDSGLRYDYWGQGTQVTVSS
  polyreactivity (PSR sort gate): high polyreactivity

## QVQLVESGGGLVQAGGSLRLSCAASGFIFGYYAMGWYRQAPGKERELVAAINRSGSTYYADSVKGPFTISRDNAKNTVYLQMNSLKPEDTAVYYCKLRHYVGLSKGDYWGQGTQVTVSS
  polyreactivity (PSR sort gate): high polyreactivity

## QVQLVESGGGLVQAGRSLLLSCAASGRIFDGYAKGRYRQAPGKERELVAAINSNDGTTYYADSVKGRFTISRDKAKHTVYVQMNSLKPEDTAVYYCAKVSYNAWSYGPQMDYWGQGTQVTVSS
  polyreactivity (PSR sort gate): low polyreactivity

## QVQLVESGGGLVQAGGSLRLSCAASGSIFANYAMGWYRQAPGKERELVAAISRGGGTTYYADSVKGRFTISRDNAKNTVYLQMNSLKPEDTAVYYCAAARRYATQFHYDSWGQGTQVTVSS
  polyreactivity (PSR sort gate): high polyreactivity

## QVQLVESGGGLLQAGGSLRLSCAASGSIFNYSAMGWYRQAPGTERELVATISSGGNTKYADSVKGRFTISRDNAKNTVYLQMNSLKPEDTAVYYCAARWQHSGYRDRYWYDYWGQGTQVTVSS
  polyreactivity (PSR sort gate): low polyreactivity

## QVQLVESGGRLVQAGGSLRLSCASSGFTFRYYAMGWYRQAPGKERELVASITGNGGSTYYADSVKGRFTISRDNAKNTVFLHMNSLKPEDTAVYYCNARVRGYYEYNYWGQGTQVTVSS
  polyreactivity (PSR sort gate): high polyreactivity

## QVQLVESGAGLVQAGGSLRLSCAASGSTFPVYAMGWYRQAPGKEREFVAAITYSGARTYYADSVKGRFTISRDNAKNTVYLQMNSLKPEDTAVYYCNAVPYRYLLHGTRCPFSRGYDSWGQGTQVTVSS
  polyreactivity (PSR sort gate): high polyreactivity

## QVQLVESGGGLVQAGGSLRLSCAASGFTFTYYAMGWYRQAPGKERELVAGISRSGGSTYYADSVKGRFTISRDNAKNTVYLQMNSLKPEDTAVYYCAATAYSPRGKRYDSWGQGTQVTVSS
  polyreactivity (PSR sort gate): high polyreactivity

## QVQLVESGGGLVQAGGSLRLSCAASGRTFFGYAMGWYRQAPGKERELVAAISSGGSTYYADSVKGRFTISRDNAKNTVYLQMNSLKPEDTAVYYCAARSFTTRRSVIRNYWGQGTQVTVSS
  polyreactivity (PSR sort gate): high polyreactivity

## QVQLVESGGGLVQAGGSLRLICAASGSTFWGYTMGWYRQAPGKERELVAAITRSSGRTYYADSVKGRFTISRDNAMNTVYLQFHSLKPEDTAVYYWNADAVGRRTWSPYDYWGQGSQVTVSS
  polyreactivity (PSR sort gate): high polyreactivity

## QVQLLESGGGLVQAGGSLRLSCAASGSTFGYYAMGWYRQAPGKERELVAAITRSGSSTYYADSVKGRFTISRDNAKNTVYLQMNSLKPEDTAVYYCAAEARYWIYEYDYWGQGTQVTGSS
  polyreactivity (PSR sort gate): high polyreactivity

## QVHLEESGGGLVQAGGSLRLSCAASGFTFHNNVMGWYRQAPGKERELVATISKSGGSTYYADSVKGRFTISRDNAKNPVYLQMKSLKPEDTAVYYSARRYRDYRRYAYWGQGTQVTVSS
  polyreactivity (PSR sort gate): high polyreactivity

## QVQHVESGGGLVQAGGSLRLSCPASGIIFDYYAMGWYRQAPGKERELVATITSGGSTNYADSVKGRFTISRDNAKNTVYLQMNSLKPEDTAVYYCAARTYWFPDIYPGLGMDYWGQGTQVTVSS
  polyreactivity (PSR sort gate): low polyreactivity

## QVQLVESGGGLVQAGGSLRLSCAASGRIFRWNAMGWYRQAPGKERELVAAISASGGRTYYADSVKGRFTISRDNAKNTVYLQMISLKPEDTAVYYCAAGPVYYYVPIGYDYWGQGTQVTVSS
  polyreactivity (PSR sort gate): high polyreactivity

## QVQLVESGGGLVQAGGSLRLISAASVRTFAPYPRGWYREAPGKDRELVAAISSGGGNTYYADSVKGRFTISRDHPKNTVYLLMNSLKPEDTAGYYCNAAQRRGGLGYWGQGTQVTVSS
  polyreactivity (PSR sort gate): high polyreactivity

## QVQLVESGGGLVQAGGSLRLSCAASGSALYAMGWYRQAPGKEMELVADISRRGGSTFYADSVKGRFTISRDKAKNTVYLQMNSLKPEDTAVYYCAAEFITYHGDDHYYWGQGTQVTVSS
  polyreactivity (PSR sort gate): low polyreactivity

## QVQLVESGGGLVQAGGSLRLSCPASGRIFKSYAMGWYRHAPGKERELVAAINWSGGSKYYADSVKGRFTISRDNAKNTVYLQMNSLKPEDTAVYYCAAYFYGRWPYGTGYYYWGQGTQVTVSS
  polyreactivity (PSR sort gate): high polyreactivity

## QVQLVESGGGLVQAGGSLRLSCAASGFTIRRYAMGWYRQAPGKESELVAAITTGGSTYYADSVKGRFTISRDNAKNTVYLQMNSLKPEDTAVYYCATDTYPYPLYYSPGAYGYWGQGTQVTVSS
  polyreactivity (PSR sort gate): high polyreactivity

## QVQLVESRGGLVQAGGSLRLSCAASGSILVRYAMGWDRQAPGKERELVAAITGTSGGTYYADSVKGRFTISRDNAKNTVYLQMNSLKPEDTAVYYCNADGGSGAYLDLTITDYDYWGQGTQVTVSS
  polyreactivity (PSR sort gate): low polyreactivity

## RVQLVESGGGLVQAGGSLRLSCAASGGTFPVYAMGWYRQAPGKEWELVAAISYSGVTTYYADSVKGRFTISRDNAKNTVYLQMNSLKPEDTAVYYCNADWRRWYIFSYDYWGQGTQVTVSS
  polyreactivity (PSR sort gate): low polyreactivity

## QVQLVESGGGLVQAGGSLRLSCAASVSIFYVYARGCYRQAPGKERELVAAITSSGTTNYADSVKGRFTISRDNAKNTVYLQMNSLKPEDTAVYYCAADPDSGQVPFDYWGQGTHVTVSS
  polyreactivity (PSR sort gate): low polyreactivity

## QVQLVESGGGLVQAGGSLRLSCAASGRIFYIYAMGWYRQAPGKERELVAAISTGGGGTYYADSVKGRFTISRDNAKNTVYLQMNSLKPEDTAVYYCAVDSKPRYREFDYWGQGTQVTVSS
  polyreactivity (PSR sort gate): high polyreactivity

## QVQLVESGGGLVQAGGSLRLSCAASRFYTMGWYRQAPGKERELVAAISWSGGDTYYADSVKGRFTISRDNAKNTVYLQMNSLKPEDTAVYYCAKKTIGSYVHEPYYYWGQGTQVTVSS
  polyreactivity (PSR sort gate): low polyreactivity

## QVQLVESGGGLVQAGGSLRLSCAASGYTFGQYAMGWYRQAPGKEREFVAAINRSGGSTYYADSVKGRFTISRDNAKNTVYLQMNSLKPEDTAVYYCNAGYRRSSHFREHDYWGQGTQVTVSS
  polyreactivity (PSR sort gate): high polyreactivity

## QVQLVESGGGLVQAGGSLRLSCAASGSIFADYTMGCYRQAPGKERELVAAITGGGGRTYYADSVKGRFTISRDNAKNTVYLQMNSLKPEDTAVYYCAADFHDDHTSFDYWGQGTQVTVSS
  polyreactivity (PSR sort gate): low polyreactivity

## QVQLVESGGGLVQAGGSLRFSCAASGGIFWYNAMGWYRQAPGKERELVAAISASTGSTYYADSVKGRFTISRDNAKNTVYLQMNSLKPEDTAVYYCAATRYRSARYAYGHWGQGTQVTVSS
  polyreactivity (PSR sort gate): high polyreactivity

## QVQLVESGGVLVQAGGSLRLSCAASGITFPGYAMGWYRKAPGKERELVAAISAIGGRTYYADSVKGRFTISRYNAKNTVYLQMNSLKPEDTAVYYCNVLPYGGKKPTLFDYWGQGTQVTVSS
  polyreactivity (PSR sort gate): high polyreactivity

## QVQLVESGGGLVHAGGSIRLSCSASRRIFGYNVMGWYRQAPGKERELVAAITSGDRTYYADSVKGRFTISRDNAKHTVYLQMNSLKPEDTAVYYCAARGDRRRYGSLMDSWGQGTQVTVSS
  polyreactivity (PSR sort gate): high polyreactivity

## QVQLVESGGGLVQAGGSLRLSSAASGRTFYYNAMGWYRQAPGKEREFVAVMTSSGGSTYYADSVKGRFTISRDNAKNTVYLQMNSLKPEDTAVYYSAASNTEQQLVVLIEVYYTRYDYWGQGTQETVSS
  polyreactivity (PSR sort gate): low polyreactivity

## QVQLVESGGGLVQAGGILRLSCAASGQIFTYYVMGWYRQAPGKERELVAAIDWDSGSTSYADSLKGRFTISRDNAKNTVYLQMNSLKPEDTAVYYCAADEVLSGYYTLDYWGQGTQVTVSS
  polyreactivity (PSR sort gate): low polyreactivity

## QVQLVESGGGLVQAGGSLRLSCAASGSIFRGNAMGWYRQAPGKERELVAAITYNDGGTYYADSVKGRFTISRDNAKNTVYLQMNSLKPEDTAVYYCAAVGTGNKSILYDYWGQGTQVTVSS
  polyreactivity (PSR sort gate): low polyreactivity

## QVQLVESGGGLVQAGGSLRLSCAASGITFYFNAMGWYRQAPGKERELVAVITSGGSTNYADSVKGRFTISRDNAKNTVYLQMNSLKPEDTAVYYCANDKSYSSWSAQYDYWGQGTHVTVSS
  polyreactivity (PSR sort gate): low polyreactivity

## QVQLVESGGGLVQAGGSLRLSCAASGRIFKTYAMGWYRQAPGKERELVAAITASGGRTYDADSVKGRFTISRDNAKNTVYLQMNSLTPEDTAVYYSAAPLLRDLRSPYSYNYWGQGTQVTVSS
  polyreactivity (PSR sort gate): low polyreactivity

## QVQLVESGGGLVQAGGSLRLRCAASGRTFSSYDKAWYRPAPGKERELVAAITKSGGSTYYADSVKGRFTLSRDKAKNTVYLQMNSLKPDDTAVYYCGYQYYYWGQGTQVTVSS
  polyreactivity (PSR sort gate): high polyreactivity

## QVQLVESGGGLVQAGGSLRLSCAASGSNFYLYAMGWYRQAPGKERELVAAITSIGGSTYADSVKGRFTISRDNAKNTVYLQMNSLKPEDTAVYYCNTDEYPLTVQVQYYYWGQGTQVTVSS
  polyreactivity (PSR sort gate): low polyreactivity

## QVQLVESGGGLVQAGGSLRLSCAASGSTFSSYAMGWYRQAPGKERELVAAINWSGGRTYYADSVKGRFTISRDNAKNTVYLQMNSLKPEDTAVYYCAAVGVYTYPYDYWGQGTQVTVSS
  polyreactivity (PSR sort gate): high polyreactivity

## QVQLVESGGGLVQAGGSLRLSCAASGRTFWKYAMGWSRQAPGKERELVAAITDDDSTDYADSVKGRFTISRDNAKNTVYLQMTRLKPEDTAVYYCNADSSRYYRALEYWGQGTQVTVSA
  polyreactivity (PSR sort gate): low polyreactivity

## QVQLVESGGGLVQAGGSLRLICAASGRTFDNYAMGWYRQAPGKEREFVAAITTGVGSTYADSVKGRFTISRDNAKNTVYLQMNSLKPEDTAVYYCAGDSYWLFDAYDYWGQGTKVTVSS
  polyreactivity (PSR sort gate): low polyreactivity

## QVQLVESGGGLVQAGGSLRLSCAASGFIFNLYAMGWYRQAPGKERELVAVITGSGVRTYYADSVKGRFTISRDNAKNTVYLQMNSLKPEDTAVYYCAARTYGGYEYWGQGTQVTVSS
  polyreactivity (PSR sort gate): high polyreactivity

## QDQLVESGGGLVQAGASLRLSCAASGFIFVFNAMGWYRQAPGKERELVAAINGGDITNYADSVKGRFTISRDNAKNTVYLQMTSLKPEDTAVYYCAADGEDSLWTGYDYDYWGQGTQVTVSS
  polyreactivity (PSR sort gate): low polyreactivity

## QVQLVESGGGLDQAGGSLRLSCAASGYTYGTYDMRWYRQAPGKERELVAAISIGGSTNYADSVKGRFTISRDNAKNTVYLQMNSLKPEDTAVYYCAAEVNVGTLLLSVIVEDGDYWGQGTQVTVSS
  polyreactivity (PSR sort gate): low polyreactivity
